Laboratory results published in patent US8535662B2, “Apyrase therapy for bleeding conditions” (Apt Therapeutics, Inc., priority 2010, dated 2013).
Marks after values point to notes of the source that are not given here.

Experiments:
[1] = system: rats, embolic stroke (thrombus injection into internal carotid artery); assay: Embolic stroke model in rats, apyrase agent with or without r-tPA (Example 1); assay type: in vivo, rat; settings: brains at 3 days
Protocol: The following groups were included in this study:
(1) control (saline treated), n=11;
(2) apyrase agent at 0.75 mg/kg, n=4;
(3) apyrase agent at 2.25 mg/kg, n=4;
(4) r-tPA (at 10 mg/kg), n=4;
(5) apyrase agent at 0.75 mg/kg plus r-tPA (10 mg/kg) and
(6) apyrase agent at 2.25 mg/kg plus r-tPA (10 mg/kg) (n=10).
All the treatments were initiated at 2 h following thrombus injection into internal carotid artery. Infarct volume and behavioral deficit were determined at day 3 after the stroke.

[2] = system: rats, thromboembolic stroke (MCA occlusion); assay: Rat model of thromboembolic stroke (MCA occlusion by preformed clot), apyrase agent plus aspirin (Example 2); assay type: in vivo; settings: for Neurological deficits, median (interquartile range 25th to 75th), modified Bederson score: n = 10
Protocol: In this study, four experimental groups were included (n=10):
(1) control, saline injected gastrically;
(2) aspirin, 1.25 mg/kg (equivalent to 100 mg/day dose in human) injected gastrically once a day, starting 3 days prior to middle cerebral artery (MCA) occlusion and also MCA occlusion until the end of each experiment;
(3) apyrase, dose at 0.75 mg/kg injected IV at 2 h after MCA occlusion;
(4) combination group, aspirin and apyrase agent.
In this clinically relevant embolic model, ischemic brain injury was induced by embolizing preformed clots into the middle cerebral artery (MCA). Ten microliters of blood were withdrawn into a catheter and retained for 15 min to allow formation of a clot. Once the clot was formed, the catheter was advanced 17 mm in the ICA until its tip was 1-2 mm away from the origin of the MCA. The preformed clot in the catheter was then injected, and the catheter was removed. […]
Infarct was measured in the brain section stained with 2,3,5-triphenyltetrazolium chloride (TTC) solution. The infarct volume was expressed as a percentage of the total volume from the ipsilateral hemisphere.
Brain swelling (edema) was determined using a formula: edema=(the volume of the right hemisphere—the volume of the left hemisphere)/the volume of the left hemisphere.
Neurological deficits were determined using a modified Bederson's scoring system as following: 0: no observable deficit; 1: forelimb flexion; 2: forelimb flexion plus decreased resistance to lateral push; 3: unidirectional circling; 4: unidirectional circling plus decreased level of consciousness.
Hemorrhagic transformation was quantified by detection of extracellular hemoglobin content in brain homogenates using Drabkin's reagents.

[3] = system: rats, MCAO suture model with hyperglycemia; assay: Hyperglycemic hemorrhagic transformation in rat focal ischemia (MCAO suture model) (Example 3); assay type: in vivo
Protocol: Focal ischemia was produced using the MCAO (Middle Cerebral Artery Occlusion) suture model in rats. Removal of the suture at 3.5 h after MCAO signaled the beginning of the reperfusion period. Ischemia-reperfusion causes blood extravasation into infracted brain tissues, showing multiple dots, small petechiae and more confluent petechial hemorrhage.
The animals were divided into three groups: […]
Rats were sacrificed at 8 h after MCAO and brains were frozen and cut into 20 μm frozen sections with intervals at 1 mm. The sections were stained with hematoxylin-eosin (HE) or cresyl violet. The H-E staining was used for measurements of hemorrhage rate and hemorrhage volume. The cresyl violet staining was used for quantifying infarct volume and brain swelling. An MCID™ digital image analysis system (Imaging Research, Inc, St. Catherines, Ontario, Canada) was used for quantifying hemorrhage and infarct volume.

[4] = system: ADP-induced platelet aggregation; assay: Ex vivo ADP-induced platelet aggregation in platelet-rich plasma in pigs (Example 5); set-up: species or system pig
[5] = system: dogs, coronary thrombotic occlusion; assay: Canine coronary thrombosis and fibrinolysis model, adjunctive treatment with rtPA (Example 7); assay type: in vivo, dog; settings: for decrease of infarct area compared to clopidogrel treatment: percent of left ventricular area or of area-at-risk, 24 hours of reperfusion
Protocol: Thrombotic occlusion was induced by electrical injury to a coronary artery in dogs. […] Buccal mucosa bleeding times, PT, and aPTT were measured as indices of bleeding risk. After 24 hours of reperfusion, infarct size was determined by Evan's blue and triphenyltetrazolium chloride double staining. This protocol is illustrated in FIG. 7.

[6] = system: C57BL/6J mice, myocardial ischemia; assay: Mouse model of cardiac ischemia/reperfusion injury (Example 8); assay type: in vivo; settings: 24 hr reperfusion
Protocol: A mouse model of cardiac ischemia/reperfusion injury was used to determine the effect of apyrase agent on infarct size. Myocardial ischemia was produced in C57BL/6J mice via left anterior coronary artery ligation. Mice were treated with apyrase agent (1 mg/kg, IV) or saline 5 min prior to 60 min of experimentally-induced myocardial ischemia or 50 min after ischemia (n=6-8 per group). After 24 hr of reperfusion, hearts were excised and area at risk and infarct size were determined by Evan's blue and triphenyltetrazolium staining.

[7] = system: Wistar Furth recipients of Lewis lungs; assay: Allogenic rat lung transplant model, Lewis to Wistar Furth (Example 11); assay type: in vivo; settings: rats, 0.66 mg/kg/day IV for 7 days
Protocol: Lewis donor lungs stored for a minimal cold ischemia time of 1 hr were engrafted into allogenic Wistar Furth recipients and treated for 7 days in the following manner:
1. Saline: Received Saline 250 μl/day
2. Apyrase: Received Apyrase agent, 0.66 mg/kg/day IV
3. CyA (standard): Received Cyclosporine A 25 mg/kg/day, IP (standard dose used in previous studies)
4. CyA (low): Received Cyclosporine A 5.0 mg/kg/day, IP (sub optimal dose)
5. CyA (low)+apyrase agent: Received Cyclosporine A 5.0 mg/kg/day, IP and Received apyrase agent, 0.66 mg/kg/day IV
On post-operative day 7 recipients were evaluated for lung graft function by assessing PaO2 (FIG. 10) and then sacrificed and scored blindly for vascular rejection (FIG. 11) using the ISHLT scoring system by a pathologist who routinely evaluates lung allograft rejection. The ISHLT scoring criteria is a scale from where a score of A0 there is no evidence of vascular rejection as in completely syngeneic recipients (e.g., Lewis to Lewis lung transplantation) to A4 as is almost always observed in Lewis to Wistar Furth Recipients. Statistical differences between treatment groups (n=10) were determined by the student t test where significance differences were assessed as p<0.05. Control group for the alloimmune response was the Lewis to Lewis lung transplant combination.

rabbits = settings: rabbit, in vivo
Protocol: Rabbits were anesthetized with intramuscular ketamine/xylazine followed by inhaled isoflurane to maintain a stable level of surgical anesthesia for 5 h. Arterial blood pressure was monitored continuously and values for pressure and heart rate recorded at intervals after administration of apyrase agent and/or other antiplatelet agents. Venous blood samples were collected at baseline (before agents were given) for analysis of CBC and chemistry and samples were obtained serially for assay of prothrombin time (PT) and activated partial prothromboplastin time (aPTT).

B1: sol CD39L3 R67G T69R (protein)
chain: EVLPPGLKYGIVLDAGSSGTRVYVYQWPAEKENNTGVVSQTFKCSVKGSGISSYGNNPQDVPRAFEECMQKVKGQVPSHLHGSTPIHLGATAGMRLLRLQNETAANEVLESIQSYFKSQPFDFRGAQIISGQEEGVYGWITANYLMGNFLEKNLWHMWVHPHGVETTGALDLGGASTQISFVAGEKMDLNTSDIMQVSLYGYVYTLYTHSFQCYGRNEAEKKFLAMLLQNSPTKNHLTNPCYPRDYSISFTMGHVFDSLCTVDQRPESYNPNDVITFEGTGDPSLCKEKVASIFDFKACHDQETCSFDGVYQPKIKGPFVAFAGFYYTASALNLSGSFSLDTFNSSTWNFCSQNWSQLPLLLPKFDEVYARSYCFSANYIYHLFVNGYKFTEETWPQIHFEKEVGNSSIAWSLGYMLSLTNQIPAESPLIRLPIEPPV
modifications: glycosylated; synthetically constructed apyrase
[1]; apyrase agent 0.75 mg/kg (alone or plus r-tPA 10 mg/kg)
  Hemorrhage #/total animals: 0/4
[1]; apyrase agent 2.25 mg/kg (alone or plus r-tPA 10 mg/kg)
  Hemorrhage #/total animals: 0/4
[2]; 4 h after MCA occlusion
  Neurological deficits, median (interquartile range 25th to 75th), modified Bederson score: 3
[2]; 4 h after MCA occlusion, listed as Apyrase agent
  Neurological deficits, median (interquartile range 25th to 75th), modified Bederson score: 3 (2-3)
[2]; 8 h after MCA occlusion
  Neurological deficits, median (interquartile range 25th to 75th), modified Bederson score: improved
[2]; 8 h after MCA occlusion, listed as Apyrase agent
  Neurological deficits, median (interquartile range 25th to 75th), modified Bederson score: 2 (2-3)*^
[2]; 24 h after MCA occlusion, aspirin 1.25 mg/kg gastrically once a day from 3 days prior, apyrase 0.75 mg/kg IV at 2 h
  infarct volume, percentage of the total volume of the ipsilateral hemisphere (mean±SD): 17.89±2.35%
[2]; 24 h after MCA occlusion
  Neurological deficits, median (interquartile range 25th to 75th), modified Bederson score: significantly less severe than the control group
[2]; 24 h after MCA occlusion, listed as Apyrase agent
  Neurological deficits, median (interquartile range 25th to 75th), modified Bederson score: 1.5 (1-2)*
[2]; 24 h after ischemic injury
  extracellular hemoglobin content in brain homogenates (hemorrhagic transformation, Drabkin's reagents): 0.89±0.08
[2]; 24 h after ischemic injury, aspirin 1.25 mg/kg, apyrase 0.75 mg/kg IV at 2 h
  brain edema (brain swelling): 6.70±0.93%
[3]; 0.375 mg/kg IV at 3 h after MCAO (30 min before reperfusion), sacrifice at 8 h
  hemorrhage volume in the striatum: 4.8±2.0 mm^3
[3]; 0.375 mg/kg, 4.5 hour after MCAO
  neurological function: significantly improved neurological function
[4]; 0.9-2.25 mg/kg IV
  persistence of platelet inhibition: at least 5 h
  time after IV injection to >95% inhibition: ≤ 5 min
[4]; 0.9-2.25 mg/kg single IV bolus with aspirin and heparin
  inhibition of ADP-induced aggregation: > 95%
[4]; 24 h after dosing
  platelet aggregation by 24 h: returned to normal
[5]; dog, in vivo
  buccal mucosa bleeding time: no detectable change
[5]; dogs, apyrase agent at 1 mg/kg
  reocclusion: completely prevented reocclusion
[5]; dogs, high dose (1 mg/kg IV)
  decrease of infarct area compared to clopidogrel treatment: 90%
[5]; dogs, low dose (0.25 mg/kg IV)
  decrease of infarct area compared to clopidogrel treatment: 80%
[6]; 1 mg/kg IV 5 minutes prior to ischemia, 60 min ischemia
  reduction of infarct size compared to the control group: approximately 50%
[6]; 1 mg/kg IV 50 min after ischemia
  reduction of infarct size: approximately 50%
[7]
  alloimmune responses in lung allograft recipients (PaO2, ISHLT vascular rejection score): effective at suppressing alloimmune responses
rabbits
  PT: Neither PT nor aPTT were changed significantly
  aPTT: Neither PT nor aPTT were changed significantly
  blood pressure: Neither blood pressure nor heart rate changed significantly
  heart rate: Neither blood pressure nor heart rate changed significantly
